Numbered stars: 1 amine (or outer) side, 2 acyl side, 3 side chain; on linkers, the order of the positions; unused ones are H or OH. Bridge positions count the residues as written; N and C are the ends. Square brackets hold non-standard residues; d marks the D form. Side chains are listed from the residue outwards. Ends that are not written are not given here. * marks the point of attachment. C18 diacid = O=C(O)CCCCCCCCCCCCCCCCC(=O)*; γGlu = O=C(O)[C@H](CCC(=O)[*:2])N[*:1]; Aib = CC(C)(N)C(=O)O
T1: human amylin receptor (calcitonin receptor co-expressed with receptor activity modifying protein, RAMP3) (human, UniProt P30988 25-474; O60896 24-148)
T1 sequence (looked up) 1: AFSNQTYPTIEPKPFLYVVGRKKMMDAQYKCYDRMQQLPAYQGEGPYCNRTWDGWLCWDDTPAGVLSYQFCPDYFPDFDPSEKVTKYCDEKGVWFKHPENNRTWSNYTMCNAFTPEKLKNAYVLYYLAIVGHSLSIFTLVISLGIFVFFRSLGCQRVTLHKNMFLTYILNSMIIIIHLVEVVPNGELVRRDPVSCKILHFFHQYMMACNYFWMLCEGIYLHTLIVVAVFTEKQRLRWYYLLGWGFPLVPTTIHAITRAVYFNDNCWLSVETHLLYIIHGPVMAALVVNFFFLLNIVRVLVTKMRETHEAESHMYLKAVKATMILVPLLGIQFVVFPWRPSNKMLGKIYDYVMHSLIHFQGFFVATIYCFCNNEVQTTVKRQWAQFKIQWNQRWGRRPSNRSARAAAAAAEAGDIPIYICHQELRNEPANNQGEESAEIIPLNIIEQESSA
T1 sequence (looked up) 2: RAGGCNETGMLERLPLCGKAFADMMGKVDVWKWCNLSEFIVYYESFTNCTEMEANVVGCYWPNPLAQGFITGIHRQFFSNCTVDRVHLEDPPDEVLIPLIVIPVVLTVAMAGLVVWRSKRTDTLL

T2: human calcitonin receptor (human, UniProt P30988 25-474)
T2 sequence (looked up): T1 sequence (looked up) 1

T3: rat amylin receptor (calcitonin receptor co-expressed with receptor activity modifying protein, RAMP3) (rat, UniProt P32214 25-516; Q9JJ73 23-147)
T3 sequence (looked up) 1: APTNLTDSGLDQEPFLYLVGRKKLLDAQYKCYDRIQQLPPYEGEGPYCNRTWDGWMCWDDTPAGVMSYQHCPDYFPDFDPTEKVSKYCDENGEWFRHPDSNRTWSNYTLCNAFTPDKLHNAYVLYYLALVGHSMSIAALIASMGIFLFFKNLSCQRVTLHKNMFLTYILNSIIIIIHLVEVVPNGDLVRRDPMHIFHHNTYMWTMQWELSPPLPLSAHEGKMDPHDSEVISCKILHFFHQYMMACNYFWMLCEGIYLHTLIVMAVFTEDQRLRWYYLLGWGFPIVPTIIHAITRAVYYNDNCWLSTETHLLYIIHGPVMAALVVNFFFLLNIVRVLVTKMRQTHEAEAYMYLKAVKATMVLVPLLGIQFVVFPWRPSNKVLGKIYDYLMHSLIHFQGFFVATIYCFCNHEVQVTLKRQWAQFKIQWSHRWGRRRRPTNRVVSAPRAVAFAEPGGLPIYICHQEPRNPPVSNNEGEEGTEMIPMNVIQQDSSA
T3 sequence (looked up) 2: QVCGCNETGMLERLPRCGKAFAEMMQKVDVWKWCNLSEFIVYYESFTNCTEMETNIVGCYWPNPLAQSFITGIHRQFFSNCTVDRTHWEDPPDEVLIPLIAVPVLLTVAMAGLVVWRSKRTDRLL

T4: rat calcitonin receptor (rat, UniProt P32214 25-516)
T4 sequence (looked up): T3 sequence (looked up) 1

B1: Peptide 41 (SEQ ID NO: 41) (peptide)
peptide: K([γGlu-C18 diacid])KCNTATCATQRLANFLVHSS[Aib]NFGPILPPTEVGSNTY-NH2
modifications: disulfide 3-8; N-terminus assumed
SMILES: CC[C@H](C)[C@H](NC(=O)[C@@H]1CCCN1C(=O)CNC(=O)[C@H](Cc1ccccc1)NC(=O)[C@H](CC(N)=O)NC(=O)C(C)(C)NC(=O)[C@H](CO)NC(=O)[C@H](CO)NC(=O)[C@H](Cc1c[nH]cn1)NC(=O)[C@@H](NC(=O)[C@H](CC(C)C)NC(=O)[C@H](Cc1ccccc1)NC(=O)[C@H](CC(N)=O)NC(=O)[C@H](C)NC(=O)[C@H](CC(C)C)NC(=O)[C@H](CCCNC(=N)N)NC(=O)[C@H](CCC(N)=O)NC(=O)[C@@H](NC(=O)[C@H](C)NC(=O)[C@@H]1CSSC[C@H](NC(=O)[C@H](CCCCN)NC(=O)[C@@H](N)CCCCNC(=O)CC[C@H](NC(=O)CCCCCCCCCCCCCCCCC(=O)O)C(=O)O)C(=O)N[C@@H](CC(N)=O)C(=O)N[C@@H]([C@@H](C)O)C(=O)N[C@@H](C)C(=O)N[C@@H]([C@@H](C)O)C(=O)N1)[C@@H](C)O)C(C)C)C(=O)N[C@@H](CC(C)C)C(=O)N1CCC[C@H]1C(=O)N1CCC[C@H]1C(=O)N[C@H](C(=O)N[C@@H](CCC(=O)O)C(=O)N[C@H](C(=O)NCC(=O)N[C@@H](CO)C(=O)N[C@@H](CC(N)=O)C(=O)N[C@H](C(=O)N[C@@H](Cc1ccc(O)cc1)C(N)=O)[C@@H](C)O)C(C)C)[C@@H](C)O
B2: Peptide 48 (SEQ ID NO: 48) (peptide)
peptide: K([γGlu-C18 diacid])CNTATCATQRLANFLRHSS[Aib]NFGPILPPTNVGSNTY-NH2
modifications: disulfide 2-7; N-terminus assumed
SMILES: CC[C@H](C)[C@H](NC(=O)[C@@H]1CCCN1C(=O)CNC(=O)[C@H](Cc1ccccc1)NC(=O)[C@H](CC(N)=O)NC(=O)C(C)(C)NC(=O)[C@H](CO)NC(=O)[C@H](CO)NC(=O)[C@H](Cc1c[nH]cn1)NC(=O)[C@H](CCCNC(=N)N)NC(=O)[C@H](CC(C)C)NC(=O)[C@H](Cc1ccccc1)NC(=O)[C@H](CC(N)=O)NC(=O)[C@H](C)NC(=O)[C@H](CC(C)C)NC(=O)[C@H](CCCNC(=N)N)NC(=O)[C@H](CCC(N)=O)NC(=O)[C@@H](NC(=O)[C@H](C)NC(=O)[C@@H]1CSSC[C@H](NC(=O)[C@@H](N)CCCCNC(=O)CC[C@H](NC(=O)CCCCCCCCCCCCCCCCC(=O)O)C(=O)O)C(=O)N[C@@H](CC(N)=O)C(=O)N[C@@H]([C@@H](C)O)C(=O)N[C@@H](C)C(=O)N[C@@H]([C@@H](C)O)C(=O)N1)[C@@H](C)O)C(=O)N[C@@H](CC(C)C)C(=O)N1CCC[C@H]1C(=O)N1CCC[C@H]1C(=O)N[C@H](C(=O)N[C@@H](CC(N)=O)C(=O)N[C@H](C(=O)NCC(=O)N[C@@H](CO)C(=O)N[C@@H](CC(N)=O)C(=O)N[C@H](C(=O)N[C@@H](Cc1ccc(O)cc1)C(N)=O)[C@@H](C)O)C(C)C)[C@@H](C)O
B3: Peptide 44 (SEQ ID NO: 44) (peptide)
peptide: K([γGlu-C18 diacid])CNTATCATQRLANFLRHSS[Aib]NFGPILPPTEVGSNTY-NH2
modifications: disulfide 2-7; N-terminus assumed
SMILES: CC[C@H](C)[C@H](NC(=O)[C@@H]1CCCN1C(=O)CNC(=O)[C@H](Cc1ccccc1)NC(=O)[C@H](CC(N)=O)NC(=O)C(C)(C)NC(=O)[C@H](CO)NC(=O)[C@H](CO)NC(=O)[C@H](Cc1c[nH]cn1)NC(=O)[C@H](CCCNC(=N)N)NC(=O)[C@H](CC(C)C)NC(=O)[C@H](Cc1ccccc1)NC(=O)[C@H](CC(N)=O)NC(=O)[C@H](C)NC(=O)[C@H](CC(C)C)NC(=O)[C@H](CCCNC(=N)N)NC(=O)[C@H](CCC(N)=O)NC(=O)[C@@H](NC(=O)[C@H](C)NC(=O)[C@@H]1CSSC[C@H](NC(=O)[C@@H](N)CCCCNC(=O)CC[C@H](NC(=O)CCCCCCCCCCCCCCCCC(=O)O)C(=O)O)C(=O)N[C@@H](CC(N)=O)C(=O)N[C@@H]([C@@H](C)O)C(=O)N[C@@H](C)C(=O)N[C@@H]([C@@H](C)O)C(=O)N1)[C@@H](C)O)C(=O)N[C@@H](CC(C)C)C(=O)N1CCC[C@H]1C(=O)N1CCC[C@H]1C(=O)N[C@H](C(=O)N[C@@H](CCC(=O)O)C(=O)N[C@H](C(=O)NCC(=O)N[C@@H](CO)C(=O)N[C@@H](CC(N)=O)C(=O)N[C@H](C(=O)N[C@@H](Cc1ccc(O)cc1)C(N)=O)[C@@H](C)O)C(C)C)[C@@H](C)O
B4: Peptide 40 (SEQ ID NO: 40) (peptide)
peptide: K([γGlu-C18 diacid])KCNTATCATQRLANFLVHSS[Aib]NFGPILPPTHVGSNTY-NH2
modifications: disulfide 3-8; N-terminus assumed
SMILES: CC[C@H](C)[C@H](NC(=O)[C@@H]1CCCN1C(=O)CNC(=O)[C@H](Cc1ccccc1)NC(=O)[C@H](CC(N)=O)NC(=O)C(C)(C)NC(=O)[C@H](CO)NC(=O)[C@H](CO)NC(=O)[C@H](Cc1c[nH]cn1)NC(=O)[C@@H](NC(=O)[C@H](CC(C)C)NC(=O)[C@H](Cc1ccccc1)NC(=O)[C@H](CC(N)=O)NC(=O)[C@H](C)NC(=O)[C@H](CC(C)C)NC(=O)[C@H](CCCNC(=N)N)NC(=O)[C@H](CCC(N)=O)NC(=O)[C@@H](NC(=O)[C@H](C)NC(=O)[C@@H]1CSSC[C@H](NC(=O)[C@H](CCCCN)NC(=O)[C@@H](N)CCCCNC(=O)CC[C@H](NC(=O)CCCCCCCCCCCCCCCCC(=O)O)C(=O)O)C(=O)N[C@@H](CC(N)=O)C(=O)N[C@@H]([C@@H](C)O)C(=O)N[C@@H](C)C(=O)N[C@@H]([C@@H](C)O)C(=O)N1)[C@@H](C)O)C(C)C)C(=O)N[C@@H](CC(C)C)C(=O)N1CCC[C@H]1C(=O)N1CCC[C@H]1C(=O)N[C@H](C(=O)N[C@@H](Cc1c[nH]cn1)C(=O)N[C@H](C(=O)NCC(=O)N[C@@H](CO)C(=O)N[C@@H](CC(N)=O)C(=O)N[C@H](C(=O)N[C@@H](Cc1ccc(O)cc1)C(N)=O)[C@@H](C)O)C(C)C)[C@@H](C)O
B5: Peptide 43 (SEQ ID NO: 43) (peptide)
peptide: K([γGlu-C18 diacid])KCNTATCATQRLANFLRHSS[Aib]NFGPILPPTEVGSNTY-NH2
modifications: disulfide 3-8; N-terminus assumed
SMILES: CC[C@H](C)[C@H](NC(=O)[C@@H]1CCCN1C(=O)CNC(=O)[C@H](Cc1ccccc1)NC(=O)[C@H](CC(N)=O)NC(=O)C(C)(C)NC(=O)[C@H](CO)NC(=O)[C@H](CO)NC(=O)[C@H](Cc1c[nH]cn1)NC(=O)[C@H](CCCNC(=N)N)NC(=O)[C@H](CC(C)C)NC(=O)[C@H](Cc1ccccc1)NC(=O)[C@H](CC(N)=O)NC(=O)[C@H](C)NC(=O)[C@H](CC(C)C)NC(=O)[C@H](CCCNC(=N)N)NC(=O)[C@H](CCC(N)=O)NC(=O)[C@@H](NC(=O)[C@H](C)NC(=O)[C@@H]1CSSC[C@H](NC(=O)[C@H](CCCCN)NC(=O)[C@@H](N)CCCCNC(=O)CC[C@H](NC(=O)CCCCCCCCCCCCCCCCC(=O)O)C(=O)O)C(=O)N[C@@H](CC(N)=O)C(=O)N[C@@H]([C@@H](C)O)C(=O)N[C@@H](C)C(=O)N[C@@H]([C@@H](C)O)C(=O)N1)[C@@H](C)O)C(=O)N[C@@H](CC(C)C)C(=O)N1CCC[C@H]1C(=O)N1CCC[C@H]1C(=O)N[C@H](C(=O)N[C@@H](CCC(=O)O)C(=O)N[C@H](C(=O)NCC(=O)N[C@@H](CO)C(=O)N[C@@H](CC(N)=O)C(=O)N[C@H](C(=O)N[C@@H](Cc1ccc(O)cc1)C(N)=O)[C@@H](C)O)C(C)C)[C@@H](C)O

target: T1, human amylin receptor (calcitonin …); experiment: cell-based or functional assay

Binder	EC50 (cAMP production) [pM]	Ratio (EC50 hCTR / EC50 hAMYR3)
B1	178	7
B2	126	42
B3	284	22
B4	228	15
B5	647	29

target: T2, human calcitonin receptor; experiment: cell-based or functional assay

Binder	EC50 (cAMP production) [nM]
B1	1.18
B2	5.27
B3	6.26
B4	3.33
B5	19

target: T3, rat amylin receptor (calcitonin …); experiment: cell-based or functional assay

Binder	EC50 (cAMP production) [pM]
B1	8.2
B2	4.8
B3	18.5
B4	12
B5	14.5

target: T4, rat calcitonin receptor; experiment: cell-based or functional assay

Binder	EC50 (cAMP production) [pM]
B1	925
B2	2430
B3	2240
B4	782
B5	3650

From patent publication US20220204580A1 (AstraZeneca / MedImmune, published 2022)
